Data reported in patent US20170066831A1 (Janssen / Centocor, published 2017).

What was measured:
[1] = target: T1, HH-ST2L (human ST2L Domains I and II), wild type (human, UniProt Q01638 19-205); assay: SPR, ProteOn XPR36, 25 C; mAb captured on anti-Fc surface, ST2L-D1D2 (HH-ST2L) protein injected; 1:1 model
T1 construct: also called ST2L-D1D2
T1 sequence: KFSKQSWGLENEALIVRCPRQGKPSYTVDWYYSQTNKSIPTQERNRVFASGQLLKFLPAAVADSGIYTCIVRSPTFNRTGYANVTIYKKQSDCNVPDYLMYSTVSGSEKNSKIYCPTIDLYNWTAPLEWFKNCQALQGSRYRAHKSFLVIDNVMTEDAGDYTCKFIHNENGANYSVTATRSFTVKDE
Description: (§1) Binding studies were performed using the ProteOn XPR36 Protein Interaction Array system (Bio-Rad) (Bravman T, et al. Anal Biochem 358:281-288, 2006). […] Individual anti-ST2L mAb was then captured by flowing (1 μg/mL) antibody solution prepared in PBS containing 0.5% Nonidet P-40 and 0.5% Na-deoxycholate). The signal in the surfaces reached ˜250 resonance units (RU, 1 RU=1 pg protein/mm²) in the anti-Fc-coated surfaces, confirming that these antibodies specifically capture anti-ST2L mAbs. After 90° rotation of the fluid system, wild type of ST2L-D1D2 or variant proteins (0.5 mg/mL in PBS containing 0.5% Nonidet P-40 and 0.5% Na-deoxycholate) was injected in the parallel flow channels. All of these assays were performed at 25° C. The ST2L-D1D2-dependent signals on the surfaces were obtained by double referencing, subtracting the response observed on surfaces immobilizing the antibodies alone, and the signal observed injecting the vehicle alone (which allows correction for binding-independent responses). The resulting sensorgrams were fitted by the simplest 1:1 interaction model (ProteOn analysis software), to obtain the corresponding association and dissociation rate constants (kₐ and kd).

[2] = target: T2, human ST2L extracellular domain with C-terminal His6 tag (human, UniProt Q01638 19-328); assay: SPR, mAb captured, ST2L-ECD in solution
T2 construct: also called huST2L-ECD; ST2L-ECD
T2 sequence: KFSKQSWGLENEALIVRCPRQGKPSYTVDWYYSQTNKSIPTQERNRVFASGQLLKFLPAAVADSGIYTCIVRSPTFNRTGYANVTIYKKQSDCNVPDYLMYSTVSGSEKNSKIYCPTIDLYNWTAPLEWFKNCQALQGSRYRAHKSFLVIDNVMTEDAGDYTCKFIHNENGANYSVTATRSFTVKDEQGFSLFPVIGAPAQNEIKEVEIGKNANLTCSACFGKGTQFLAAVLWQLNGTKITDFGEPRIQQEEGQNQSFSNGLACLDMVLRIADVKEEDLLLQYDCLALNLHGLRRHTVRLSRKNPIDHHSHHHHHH

[3] = target: T3, cynomolgus (Macaca fascicularis) ST2L extracellular domain with C-terminal His6 tag (Macaca fascicularis (cynomolgus), UniProt Q01638 19-321 (human entry)); assay: SPR, mAb captured, ST2L-ECD in solution
T3 construct: also called cyno ST2L-ECD; cynoST2L-ECD
T3 chain: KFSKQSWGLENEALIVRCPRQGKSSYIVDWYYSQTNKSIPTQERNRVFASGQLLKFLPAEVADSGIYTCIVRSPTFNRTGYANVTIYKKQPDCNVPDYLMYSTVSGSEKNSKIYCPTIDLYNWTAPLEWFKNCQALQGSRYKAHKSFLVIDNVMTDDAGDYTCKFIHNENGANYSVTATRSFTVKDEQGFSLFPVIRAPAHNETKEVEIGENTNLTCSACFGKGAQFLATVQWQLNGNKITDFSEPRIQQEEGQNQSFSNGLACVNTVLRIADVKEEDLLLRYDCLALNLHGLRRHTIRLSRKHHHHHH

[4] = target: T1, HH-ST2L (human ST2L Domains I and II), …; assay: ProteOn SPR, mAb captured by anti-Fc, ST2L-D1D2 injected
Description: as §1
Residue numbering is according to full length human ST2L of SEQ ID NO: 1.

[5] = target: T2, human ST2L extracellular domain with …; assay: RLB ELISA: biotinylated IL-33 on coated huST2L-ECD, antibody titrated
How it was run: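 Plates coated 16 h at 4 °C with His6-tagged ST2L-ECD (human aa 19-328, 4 μg/ml; cyno aa 19-321, 2 μg/ml). Titrated mAbs applied 1 h at RT, then biotinylated IL-33 added 30 min (human 112-270 at 100 ng/ml final; cyno 112-269 at 200 ng/ml final). Bound ligand detected with streptavidin-HRP/TMB, OD450.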

B1: STLM208 (antibody, V domains shown)
VH: EVQLLESGGGLVQPGGSLRLSCAASGFTFSIYDMIWVRQAPGKGLEWVSSIRGEGGGTYYADSVKGRFTISRDNSKNTLYLQMNSLRAEDTAVYYCARDPWSTEGSFFVLDYWGQGTLVTVSS
VL: EIVLTQSPATLSLSPGERATLSCRASQSVDDDLAWYQQKPGQAPRLLIYDASNRATGIPARFSGSGSGTDFTLTISSLEPEDFAVYYCQQYITAPLTFGQGTKVEIK
notes: frameworks VH3-23 / Vk-L6
koff [1]: 0.000122 s⁻¹ | kon [1]: 1.14e+07 M⁻¹ s⁻¹ | Kd [2]: 0.011 nM | koff [2]: 6.76e-05 s⁻¹ | kon [2]: 5.97e+06 M⁻¹ s⁻¹ | Kd [3]: 0.005 nM | koff [3]: 7.02e-05 s⁻¹ | kon [3]: 1.39e+07 M⁻¹ s⁻¹ | Kd [4]: ~0.0108 nM | IC50 [5]: 0.47 µg/mL
